# Data published in patent US20230265151A1, “GIP/GLP1 CO-AGONIST COMPOUNDS” (priority 2020, published 2023).
# *1 amine or outer side, *2 acyl side, *3 side chain or, on linkers, in order; H or OH if unused. Where no end group is shown, it is not given here. Side-chain parts run from the residue outwards. [ ]: non-standard residue; d: D form. The star is where a group is joined. Decanoyl(10-(4-HOOC-PhO)) = O=C(O)c1ccc(OCCCCCCCCCC(=O)*)cc1; αMePhe(2-F) = C[C@](N)(Cc1ccccc1F)C(=O)O; γGlu = O=C(O)[C@H](CCC(=O)[*:2])N[*:1]; αMeY = C[C@](N)(Cc1ccc(O)cc1)C(=O)O; αMeL = CC(C)C[C@](C)(N)C(=O)O; Orn = NCCC[C@H](N)C(=O)O; AEEA = NCCOCCOCC(=O)O; Aib = CC(C)(N)C(=O)O
# Legend:
# Assay in all cases: cell-based or functional assay
# human glucagon receptor [1] = molecular target: human glucagon receptor (human, UniProt P47871 26-477)
# Target sequence in this assay (P47871 26-477): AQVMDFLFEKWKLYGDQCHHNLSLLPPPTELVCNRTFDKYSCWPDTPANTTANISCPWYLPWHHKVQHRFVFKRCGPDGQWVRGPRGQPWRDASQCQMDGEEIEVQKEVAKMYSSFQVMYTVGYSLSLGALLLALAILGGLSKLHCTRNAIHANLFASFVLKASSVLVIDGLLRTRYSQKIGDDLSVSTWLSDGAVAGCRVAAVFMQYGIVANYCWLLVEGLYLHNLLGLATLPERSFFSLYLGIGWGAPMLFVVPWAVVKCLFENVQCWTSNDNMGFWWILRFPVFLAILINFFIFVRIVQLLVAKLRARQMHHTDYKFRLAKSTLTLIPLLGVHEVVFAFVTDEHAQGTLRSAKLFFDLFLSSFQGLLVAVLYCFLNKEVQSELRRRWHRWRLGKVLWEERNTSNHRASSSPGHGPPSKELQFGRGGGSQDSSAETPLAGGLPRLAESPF
# human GLP-1 receptor [2] = molecular target: human GLP-1 receptor (human, UniProt P43220 24-463)
# human GIP receptor [3] = molecular target: T1, human GIP receptor (human, UniProt P48546 22-466)
# T1 sequence (looked up): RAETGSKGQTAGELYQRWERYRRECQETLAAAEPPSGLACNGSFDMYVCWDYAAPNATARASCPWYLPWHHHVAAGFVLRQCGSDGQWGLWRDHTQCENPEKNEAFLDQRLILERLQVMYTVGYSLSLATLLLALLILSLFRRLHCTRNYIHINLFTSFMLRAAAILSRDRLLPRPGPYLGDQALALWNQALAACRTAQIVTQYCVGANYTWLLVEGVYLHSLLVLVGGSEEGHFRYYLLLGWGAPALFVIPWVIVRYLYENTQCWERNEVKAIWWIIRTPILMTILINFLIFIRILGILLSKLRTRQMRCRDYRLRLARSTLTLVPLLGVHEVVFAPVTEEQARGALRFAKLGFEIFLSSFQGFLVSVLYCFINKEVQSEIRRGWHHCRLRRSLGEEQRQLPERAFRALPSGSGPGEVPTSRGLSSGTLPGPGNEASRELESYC
# [4] = molecular target: human glucagon receptor (human) (UniProt P47871)
# [5] = molecular target: T2, human GIP receptor (human) (UniProt P48546)
# T2 sequence (looked up): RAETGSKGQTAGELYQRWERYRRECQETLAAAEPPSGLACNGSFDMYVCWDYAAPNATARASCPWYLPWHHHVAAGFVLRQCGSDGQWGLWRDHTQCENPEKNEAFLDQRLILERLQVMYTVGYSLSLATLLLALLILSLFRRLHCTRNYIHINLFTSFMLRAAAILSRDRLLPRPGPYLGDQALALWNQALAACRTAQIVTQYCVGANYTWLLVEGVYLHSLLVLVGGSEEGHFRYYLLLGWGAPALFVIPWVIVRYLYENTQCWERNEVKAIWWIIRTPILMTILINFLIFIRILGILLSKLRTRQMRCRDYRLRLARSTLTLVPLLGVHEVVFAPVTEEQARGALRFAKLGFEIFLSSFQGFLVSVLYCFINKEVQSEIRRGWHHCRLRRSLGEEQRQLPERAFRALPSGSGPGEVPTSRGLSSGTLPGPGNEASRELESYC
# hGLP-1R = hGLP-1R (Homo sapiens, UniProt P43220)
# human glucagon receptor [6] = molecular target: human glucagon receptor (human, UniProt P47871 26-477); remark: listed apart in the source
# human GLP-1 receptor [7] = molecular target: human GLP-1 receptor (human, UniProt P43220 24-463); remark: listed apart in the source
# human GIP receptor [8] = molecular target: T3, human GIP receptor (human, UniProt P48546 22-466); remark: listed apart in the source
# T3 sequence (looked up): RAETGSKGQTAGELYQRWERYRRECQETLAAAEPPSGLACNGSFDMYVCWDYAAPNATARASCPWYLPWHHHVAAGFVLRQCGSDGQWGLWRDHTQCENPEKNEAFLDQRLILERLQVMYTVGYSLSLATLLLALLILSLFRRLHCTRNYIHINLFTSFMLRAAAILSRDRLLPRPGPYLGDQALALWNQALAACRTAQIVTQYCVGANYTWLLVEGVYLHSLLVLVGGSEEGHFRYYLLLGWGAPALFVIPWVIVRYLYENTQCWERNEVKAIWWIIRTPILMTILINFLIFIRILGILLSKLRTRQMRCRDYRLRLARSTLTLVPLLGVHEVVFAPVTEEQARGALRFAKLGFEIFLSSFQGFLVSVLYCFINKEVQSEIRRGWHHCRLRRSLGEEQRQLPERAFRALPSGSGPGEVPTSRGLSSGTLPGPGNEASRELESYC
Binder,cAMP EC50 (1.0% HSA) (human glucagon receptor [1]) [µM],cAMP EC50 (1.0% HSA) (human GLP-1 receptor [2]) [nM],cAMP EC50 (1.0% HSA) (human GIP receptor [3]) [nM],cAMP Emax (1.0% HSA) (human GIP receptor [3]) [%],cAMP EC50 [4] [µM],cAMP EC50 [5] [nM],cAMP Emax [5] [%],cAMP EC50 (hGLP-1R) [nM],cAMP Emax (hGLP-1R) [%],cAMP EC50 (1.0% HSA) (human glucagon receptor [6]) [µM],cAMP EC50 (1.0% HSA) (human GLP-1 receptor [7]) [nM],cAMP Emax (1.0% HSA) (human GLP-1 receptor [7]) [%],cAMP EC50 (1.0% HSA) (human GIP receptor [8]) [nM],cAMP Emax (1.0% HSA) (human GIP receptor [8]) [%],cAMP Emax (1.0% HSA) (human GLP-1 receptor [2]) [%]
Y[Aib]EGT[αMePhe(2-F)]TSDV[Aib]I[αMeL]LD[Orn]IAQ[Aib][Orn]FIK([AEEA-AEEA-γGlu-Decanoyl(10-(4-HOOC-PhO))])[αMeY]LIK([AEEA-AEEA-γGlu-Decanoyl(10-(4-HOOC-PhO))])GGPSSGAPPPS-NH2 [Example 356],> 9.95,23.4,2.47,82.7,,,,,,,,,,,
YXEGTXTSDXXIXLDXKAQXKFIXXLIEGGPSSGAPPPS (Y-Aib-EGT-αMeF(2F)-TSD-4Pal-Aib-I-αMeL-LD-Orn-K((2-[2-(2-Amino-ethoxy)-ethoxy]-acetyl)-(γ-Glu)-CO-(CH2)12-CO2H)AQ-Aib-K((2-[2-(2-Amino-ethoxy)-ethoxy]-acetyl)-(γ-Glu)-CO-(CH2)12-CO2H)FI-(D-Glu)-αMeY-LIEGGPSSGAPPPS-NH2) [Example 336],,,,,> 10.1,0.0136,109,0.338,107,> 10.1,47,103,2.92,,
YXEGTXTSDXXIXLDXIAQXKFIXXLIKGGPSSGAPPPS (Y-Aib-EGT-αMeF(2F)-TSD-4Pal-Aib-I-αMeL-LD-Orn-IAQ-Aib-K((2-[2-(2-Amino-ethoxy)-ethoxy]-acetyl)-(γ-Glu)-CO-(CH2)12-CO2H)FI-(D-Glu)-αMeY-LIK((2-[2-(2-Amino-ethoxy)-ethoxy]-acetyl)-(γ-Glu)-CO-(CH2)12-CO2H)GGPSSGAPPPS-NH2) [Example 340],,,,,> 9.95,0.0206,95.2,0.409,105,> 9.95,122,112,9.91,87.9,
YXEGTXTSDXXIXLDXIAQXXFIKXLIKGGPSSGAPPPS (Y-Aib-EGT-αMeF(2F)-TSD-4Pal-Aib-I-αMeL-LD-Orn-IAQ-Aib-Orn-FIK((2-[2-(2-Amino-ethoxy)-ethoxy]-acetyl)2-(γ-Glu)-(10-(4-carboxyphenoxy)decanoyl))-αMeY-LIK((2-[2-(2-Amino-ethoxy)-ethoxy]-acetyl)2-(γ-Glu)-(10-(4-carboxyphenoxy)decanoyl))GGPSSGAPPPS-NH2) [Example 354],> 9.95,7.25,0.857,67.5,,,,,,,,,,,95.9
YXEGTXTSDXXIXLDXQAQXXFIKXLIKGGPSSGAPPPS (Y-Aib-EGT-αMeF(2F)-TSD-4Pal-Aib-I-αMeL-LD-Orn-QAQ-Aib-Orn-FIK((2-[2-(2-Amino-ethoxy)-ethoxy]-acetyl)2-(γ-Glu)-CO-(CH2)12-CO2H)-αMeY-LIK((2-[2-(2-Amino-ethoxy)-ethoxy]-acetyl)2-(γ-Glu)-CO-(CH2)12-CO2H)GGPSSGAPPPS-NH2) [Example 391],> 9.95,2.62,0.266,,,,,,,,,,,,
YXEGTXTSDXXIXLDXKAQXEFIXXLIKGGPSSGAPPPS (Y-Aib-EGT-αMeF(2F)-TSD-4Pal-Aib-I-αMeL-LD-Orn-K((2-[2-(2-Amino-ethoxy)-ethoxy]-acetyl)-(γ-Glu)-CO-(CH2)12-CO2H)AQ-Aib-EFI-(D-Glu)-αMeY-LIK((2-[2-(2-Amino-ethoxy)-ethoxy]-acetyl)-(γ-Glu)-CO-(CH2)12-CO2H)GGPSSGAPPPS-NH2) [Example 337],,,,,> 10.1,0.0151,103,0.444,107,> 10.1,53.6,,2.65,,
